In assay [1] the target is T1, human CD8αα homodimer, recombinant protein (Acro Biosystems) (human, UniProt P01732 22-182).
T1 construct: also called CD8αα antigen; biotinylated CD8α recombinant protein (CDA-H82E3)
Nature of the assay: BLI, whole antibody, steady state dissociation constant (column head x10^-9M). How it is done:
(§1) To assess affinity of whole antibodies, steady state analysis was used as the bivalent nature of both whole antibody and CD8α complicates kinetic analysis. 50 nM CD8α-His (that is, CD8α with a C-terminal oligohistidine tag; Acro) was immobilized on Ni-NTA sensor probes. Binding was analyzed with a three-fold antibody dilutions series: 60 nM, 20 nM, 6.67 nM, 2.22 nM, 0.74 nM, and 0.25 nM. The antigen-loaded sensors were incubated in the diluted solutions to capture the whole IgG antibody for 300 s to record the association phase. Sensors were incubated in the kinetic buffer for 900 s to record the dissociation phase. The spin speed was 1000 rpm for all steps except the antigen loading step which was 400 rpm to control density of the antigen. The temperature of the performed assays was at 30° C. during the association and dissociation phases. The sensor data were baseline subtracted and further analyzed in GatorOne software (version 2.10) to determine the equilibrium dissociation constants (KD) of the antibodies by fitting the signals of the steady states to the 1:1 binding model.
(In general: BLI is a label-free optical method that tracks binding on a fibre tip over time.)

For assay [2], the target named is T1, human CD8αα homodimer, recombinant …. Kind of assay: BLI, whole antibody.
The target is the same in assay [3]. Nature of the assay: BLI kinetic rate KD on whole antibodies.
The target is the same in assay [4]. Kind of assay: BLI steady state, whole hIgG1-LALAPA antibody on CD8α-His (Ni-NTA sensor), 30 °C. How it is done: as §1
Assay [5] has the same target. Nature of the assay: BLI steady state analysis of the data of FIG. 2G. How it is done:
as §1

Assay [6] has as its target T2, custom recombinant human CD8α mouse IgG2a Fc fusion protein (human; mouse, UniProt P01732 22-182, limits assumed).
T2 construct: Custom protein; also called human CD8α mouse Fc fusion protein; not shown: mouse IgG2a Fc
Nature of the assay: BLI kinetic sensorgram, 1:1 global fit, 37 °C. How it is done:
(§2) The global fitting was performed with a 1:1 fitting model using GatorOne software as described below.
(§3) To measure the binding kinetics of the biotin-conjugated Fab molecule, streptavidin-immobilized SA-XT sensors (#160029, Gator Bio) were prehydrated in the kinetic buffer and loaded with […] biotinylated Fab sample CBD1033.37 or CBD1033.24 to a threshold response of 10 nm. […] The binder-loaded sensors were incubated in the diluted solutions to capture the CD8α protein for 1200 s to record the association phase. Sensors were finally incubated in the kinetic buffer for another 1200 s to record the dissociation phase. The spin speed for all steps was 1000 rpm. The temperature of the performed assays were at 37° C. during the association and dissociation. The sensor data were baseline subtracted, and global curve fitting of the kinetic data from six different analyte concentrations at a 1:1 monovalent binding model was performed using the GatorOne software (version v2.10) to determine the kinetic rate constants (kₒₙ and koff) and equilibrium dissociation constants (KD) of the analyzed binder.

Assay [7] addresses T2, custom recombinant human CD8α mouse …. Kind of assay: BLI kinetics, biotin-conjugated F(ab') on SA-XT sensor, HuCD8a mouse Fc fusion as analyte, 37 °C. How it is done:
as §2, §3

T1 sequence (P01732 22-182 limits assumed): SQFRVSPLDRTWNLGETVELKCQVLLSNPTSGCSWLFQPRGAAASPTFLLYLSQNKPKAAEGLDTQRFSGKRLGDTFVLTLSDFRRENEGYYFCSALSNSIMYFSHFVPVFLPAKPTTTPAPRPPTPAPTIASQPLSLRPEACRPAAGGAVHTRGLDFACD
T2 sequence (P01732 22-182 limits assumed): as above

B1: CBD1383 whole antibody (VH N55D of CBD1033, deamidation mimic), Fc-silenced human IgG1 (antibody, V domains shown)
VH: QVQLVQSGAEVKKPGASVKVSCKASRYTFTDYNLHWVRQAPGQGLEWMGFIYPYDGGTGYAQKFQGRVTMTVDTSTSTAYMELSSLRSEDTAVYYCARDHRYNEGVSFDYWGQGTTVTVSS
VL: DIQLTQSPSSLSASVGDRATITCRASESVDGFGNSFMNWYQQKPGKAPKLLIYLASNLESGVPSRFSGSGSGTDFTLTISSVQPEDFATYYCQQNNEDPYTFGQGTKLEIKR
notes: also called 100% deamidation mimic
Usually Kd stands for the equilibrium constant for the complex coming apart. As a reminder, the koff is the first-order rate constant of dissociation. By kon is commonly meant a measure of how fast the partners come together. Consider B1, for which the Kd in assay [1] is 7.94 nM. For the same molecule, in assay [2], the koff came to 0.00303 s⁻¹ and the kon worked out at 1.1e+06 M⁻¹ s⁻¹. Also, the “fold reduction of affinity compared to CBD1033” value in assay [3] was around 5.5 fold.

B2: CBD1043 (antibody, human IgG1, kappa, L234A L235A, V domains shown)
VH: QVQLVQSGAEVKKPGASVKVSCKASRYTFTDYNLHWVRQAPGQGLEWIGFIYPYNGGTGYAQKFQGRVTITADTSTSTAYMELSSLRSEDTAVYYCARDHRYNEGVSFDYWGQGTLVTVSS
VL: EIVLTQSPGTLSLSPGERATLSCRASESVDGFGNSFMNWYQQKPGQAPRLLIYLASNLESGVPARFSGSGSGTDFTLTISRLEPEDFAVYYCQQNNEDPYTFGQGTKVEIKR
notes: also called CBD1043- hIgG1LALAPA; h1017-H7/L5 whole antibody
For the molecule B2, the Kd in assay [4] and in assay [5] was 3.91 nM throughout.

B3: maleimide-PEG-biotin conjugated CBD1033.37 F(ab') (Fab, V domains shown)
VH: QVQLVQSGAEVKKPGASVKVSCKASRYTFTDYNLHWVRQAPGQGLEWMGFIYPYNGGTGYAQKFQGRVTMTVDTSTSTAYMELSSLRSEDTAVYYCARDHRYNEGVSFDYWGQGTTVTVSS
VL: DIQLTQSPSSLSASVGDRATITCRASESVDGFGNSFMNWYQQKPGKAPKLLIYLASNLESGVPSRFSGSGSGTDFTLTISSVQPEDFATYYCQQNNEDPYTFGQGTKLEIKR
modifications: maleimide-PEG11-biotin on CH C230 (sequential numbering, corresponding to C239 in Kabat numbering)
notes: Loaded on streptavidin sensors through the biotin; also called biotinylated Fab sample CBD1033.37
Regarding B3, in assay [6], the Kd was 6.85 nM, the koff turned out to be 0.000144 s⁻¹ and the kon worked out at 20900 M⁻¹ s⁻¹. Also, in assay [7], the Kd was determined as 6.85 nM, the koff came out at 0.000144 s⁻¹ and the kon was determined as 20900 M⁻¹ s⁻¹.

Values taken from patent US20250195685A1 (CAPSTAN THERAPEUTICS, published 2025).
